How the values were obtained:
[1] = target: paused elongation complex PEC-225 (E. coli RNAP stalled at U225 of the Bsu-GTR template) (E. coli); experiment: single-molecule fluorescence colocalisation
[2] = target: paused elongation complex PEC-161 (E. coli RNAP stalled at C161 of the Bsu-GTR template) (E. coli); experiment: single-molecule fluorescence colocalisation

Sequence of paused elongation complex PEC-225 (E. coli RNAP stalled at U225 of the Bsu-GTR template) (E. coli) (A1AGI6 whole entry, chain 1 of 4): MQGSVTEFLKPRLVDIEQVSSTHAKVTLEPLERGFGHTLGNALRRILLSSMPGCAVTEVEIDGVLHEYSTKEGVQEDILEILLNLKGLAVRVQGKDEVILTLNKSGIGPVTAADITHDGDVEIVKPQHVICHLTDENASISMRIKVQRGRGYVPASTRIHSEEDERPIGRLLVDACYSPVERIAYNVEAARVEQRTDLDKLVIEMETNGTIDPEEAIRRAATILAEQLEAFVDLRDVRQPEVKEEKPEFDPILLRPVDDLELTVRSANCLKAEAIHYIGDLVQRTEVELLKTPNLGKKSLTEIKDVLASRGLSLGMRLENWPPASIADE
Sequence of paused elongation complex PEC-225 (E. coli RNAP stalled at U225 of the Bsu-GTR template) (E. coli) (A1AIF9 whole entry, chain 2 of 4, further chain): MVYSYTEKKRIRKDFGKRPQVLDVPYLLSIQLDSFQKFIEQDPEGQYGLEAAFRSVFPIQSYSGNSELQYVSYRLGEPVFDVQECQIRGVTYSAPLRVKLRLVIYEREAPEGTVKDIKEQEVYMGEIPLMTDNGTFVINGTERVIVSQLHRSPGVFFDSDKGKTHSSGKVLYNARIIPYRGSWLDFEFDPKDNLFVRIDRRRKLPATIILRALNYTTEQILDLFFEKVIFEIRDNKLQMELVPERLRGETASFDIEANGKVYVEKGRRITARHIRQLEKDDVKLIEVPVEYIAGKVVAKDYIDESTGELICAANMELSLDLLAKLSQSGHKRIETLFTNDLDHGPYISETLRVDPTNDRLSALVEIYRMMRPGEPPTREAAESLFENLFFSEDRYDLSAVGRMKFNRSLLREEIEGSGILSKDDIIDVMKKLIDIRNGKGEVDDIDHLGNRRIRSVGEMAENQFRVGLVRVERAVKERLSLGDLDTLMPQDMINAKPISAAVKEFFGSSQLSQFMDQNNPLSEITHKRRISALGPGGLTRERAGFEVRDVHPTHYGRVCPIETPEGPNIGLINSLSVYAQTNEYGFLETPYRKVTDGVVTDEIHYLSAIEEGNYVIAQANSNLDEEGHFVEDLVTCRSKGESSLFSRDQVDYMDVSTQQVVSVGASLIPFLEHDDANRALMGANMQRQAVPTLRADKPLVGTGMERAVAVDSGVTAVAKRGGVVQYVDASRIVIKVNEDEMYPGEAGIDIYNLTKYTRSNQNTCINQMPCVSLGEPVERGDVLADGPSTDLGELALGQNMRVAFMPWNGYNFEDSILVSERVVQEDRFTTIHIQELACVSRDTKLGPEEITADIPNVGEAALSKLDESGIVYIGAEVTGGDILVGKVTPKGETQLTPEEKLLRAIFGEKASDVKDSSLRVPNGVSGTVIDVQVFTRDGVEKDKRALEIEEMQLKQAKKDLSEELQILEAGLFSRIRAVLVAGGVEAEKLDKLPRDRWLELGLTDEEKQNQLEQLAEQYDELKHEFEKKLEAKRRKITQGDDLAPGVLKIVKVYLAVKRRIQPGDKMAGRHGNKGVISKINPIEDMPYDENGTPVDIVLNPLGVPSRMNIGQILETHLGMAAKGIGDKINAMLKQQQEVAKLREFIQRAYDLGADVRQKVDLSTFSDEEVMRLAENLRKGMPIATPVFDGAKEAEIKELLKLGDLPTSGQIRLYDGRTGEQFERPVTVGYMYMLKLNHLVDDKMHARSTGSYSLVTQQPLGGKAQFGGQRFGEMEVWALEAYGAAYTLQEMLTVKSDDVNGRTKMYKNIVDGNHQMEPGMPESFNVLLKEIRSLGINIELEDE
Sequence of paused elongation complex PEC-225 (E. coli RNAP stalled at U225 of the Bsu-GTR template) (E. coli) (A7ZUK2 whole entry, chain 3 of 4, further chain): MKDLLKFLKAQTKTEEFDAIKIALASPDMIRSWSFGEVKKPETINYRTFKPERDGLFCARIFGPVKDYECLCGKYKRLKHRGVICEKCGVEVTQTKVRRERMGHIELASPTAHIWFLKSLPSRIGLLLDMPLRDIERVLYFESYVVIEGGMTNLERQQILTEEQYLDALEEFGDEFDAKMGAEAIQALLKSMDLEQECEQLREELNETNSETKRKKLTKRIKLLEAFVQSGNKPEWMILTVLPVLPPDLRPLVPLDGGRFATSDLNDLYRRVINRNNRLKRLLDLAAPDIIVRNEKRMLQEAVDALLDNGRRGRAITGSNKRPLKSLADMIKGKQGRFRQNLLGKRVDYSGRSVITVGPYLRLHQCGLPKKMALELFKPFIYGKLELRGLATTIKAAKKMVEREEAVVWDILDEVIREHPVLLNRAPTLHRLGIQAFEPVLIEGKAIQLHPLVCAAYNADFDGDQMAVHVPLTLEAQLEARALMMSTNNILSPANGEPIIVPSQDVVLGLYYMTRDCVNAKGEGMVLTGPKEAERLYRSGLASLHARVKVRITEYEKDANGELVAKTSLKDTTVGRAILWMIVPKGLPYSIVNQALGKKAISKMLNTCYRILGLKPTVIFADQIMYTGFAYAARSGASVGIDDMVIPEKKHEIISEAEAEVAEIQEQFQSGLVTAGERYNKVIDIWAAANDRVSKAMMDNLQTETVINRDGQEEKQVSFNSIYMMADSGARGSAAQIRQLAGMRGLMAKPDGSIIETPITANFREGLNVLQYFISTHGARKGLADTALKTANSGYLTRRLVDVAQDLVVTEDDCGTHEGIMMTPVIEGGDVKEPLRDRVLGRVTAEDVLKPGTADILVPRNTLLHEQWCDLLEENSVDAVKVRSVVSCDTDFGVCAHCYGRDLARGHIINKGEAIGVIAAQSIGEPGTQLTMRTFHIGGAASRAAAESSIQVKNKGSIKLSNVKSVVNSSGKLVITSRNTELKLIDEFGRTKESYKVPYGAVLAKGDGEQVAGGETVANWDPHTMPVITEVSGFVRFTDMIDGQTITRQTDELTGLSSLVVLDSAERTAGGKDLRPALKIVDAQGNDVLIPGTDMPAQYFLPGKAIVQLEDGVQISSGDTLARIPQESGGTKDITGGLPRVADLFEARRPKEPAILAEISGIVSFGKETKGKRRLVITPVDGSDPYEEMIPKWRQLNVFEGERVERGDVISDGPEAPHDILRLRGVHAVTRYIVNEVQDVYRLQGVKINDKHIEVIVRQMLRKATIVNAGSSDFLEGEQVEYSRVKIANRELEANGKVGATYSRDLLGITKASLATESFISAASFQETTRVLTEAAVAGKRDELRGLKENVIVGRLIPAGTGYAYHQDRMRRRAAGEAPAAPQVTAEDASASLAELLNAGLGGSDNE
Sequence of paused elongation complex PEC-225 (E. coli RNAP stalled at U225 of the Bsu-GTR template) (E. coli) (A1AHI0 2-91 limits assumed, chain 4 of 4, further chain): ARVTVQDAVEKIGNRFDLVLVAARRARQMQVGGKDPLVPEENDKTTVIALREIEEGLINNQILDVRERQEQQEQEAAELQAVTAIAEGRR

NusA-Cy5 (from UniProt P0AFF6 1-495) (natural protein)
koff [1]: 0.47 s⁻¹
kon [1]: 4.16e+06 M⁻¹ s⁻¹
kon, fast (fraction 50%) [1]: 7.26e+06 M⁻¹ s⁻¹
kon, slow (fraction 50%) [1]: 1.38e+06 M⁻¹ s⁻¹
koff [2]: 0.81 s⁻¹
kon [2]: 1.12e+07 M⁻¹ s⁻¹
kon, fast (fraction 45%) [2]: 2.34e+07 M⁻¹ s⁻¹
kon, slow (fraction 55%) [2]: 2.29e+06 M⁻¹ s⁻¹

From paper PMC12154632
